The values that follow come from article PMC2566858 (Nucleic Acids Research, 2008).

Common to all, as to assay: fluorescence anisotropy
(Polarisation of emitted light reports the rotation of a fluorescent probe.)

The target in data set [1] is T1, rGyr_hel (reverse gyrase helicase-like domain) (Thermotoga maritima, UniProt O51934 59-541).
T1 sequence: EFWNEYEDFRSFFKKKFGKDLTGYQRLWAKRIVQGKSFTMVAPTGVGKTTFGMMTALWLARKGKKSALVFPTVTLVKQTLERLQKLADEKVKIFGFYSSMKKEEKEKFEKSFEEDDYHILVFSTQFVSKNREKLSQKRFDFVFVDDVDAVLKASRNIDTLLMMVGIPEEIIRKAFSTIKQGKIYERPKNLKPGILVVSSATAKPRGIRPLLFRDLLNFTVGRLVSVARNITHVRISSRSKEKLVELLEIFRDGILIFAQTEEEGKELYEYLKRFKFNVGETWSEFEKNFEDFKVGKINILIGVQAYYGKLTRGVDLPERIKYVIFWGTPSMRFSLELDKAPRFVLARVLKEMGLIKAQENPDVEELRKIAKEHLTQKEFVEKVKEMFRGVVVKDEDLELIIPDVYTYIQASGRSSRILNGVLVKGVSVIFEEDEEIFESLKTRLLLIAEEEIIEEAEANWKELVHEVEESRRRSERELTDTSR

In data set [2] the target is T1, rGyr_hel (reverse gyrase helicase-like …). The source holds these as a separate data set.
A further data set has as its target T2, rGyr_fl K106Q/Y851F (Thermotoga maritima, UniProt O51934 1-1104, K106Q;Y851F).
T2 sequence: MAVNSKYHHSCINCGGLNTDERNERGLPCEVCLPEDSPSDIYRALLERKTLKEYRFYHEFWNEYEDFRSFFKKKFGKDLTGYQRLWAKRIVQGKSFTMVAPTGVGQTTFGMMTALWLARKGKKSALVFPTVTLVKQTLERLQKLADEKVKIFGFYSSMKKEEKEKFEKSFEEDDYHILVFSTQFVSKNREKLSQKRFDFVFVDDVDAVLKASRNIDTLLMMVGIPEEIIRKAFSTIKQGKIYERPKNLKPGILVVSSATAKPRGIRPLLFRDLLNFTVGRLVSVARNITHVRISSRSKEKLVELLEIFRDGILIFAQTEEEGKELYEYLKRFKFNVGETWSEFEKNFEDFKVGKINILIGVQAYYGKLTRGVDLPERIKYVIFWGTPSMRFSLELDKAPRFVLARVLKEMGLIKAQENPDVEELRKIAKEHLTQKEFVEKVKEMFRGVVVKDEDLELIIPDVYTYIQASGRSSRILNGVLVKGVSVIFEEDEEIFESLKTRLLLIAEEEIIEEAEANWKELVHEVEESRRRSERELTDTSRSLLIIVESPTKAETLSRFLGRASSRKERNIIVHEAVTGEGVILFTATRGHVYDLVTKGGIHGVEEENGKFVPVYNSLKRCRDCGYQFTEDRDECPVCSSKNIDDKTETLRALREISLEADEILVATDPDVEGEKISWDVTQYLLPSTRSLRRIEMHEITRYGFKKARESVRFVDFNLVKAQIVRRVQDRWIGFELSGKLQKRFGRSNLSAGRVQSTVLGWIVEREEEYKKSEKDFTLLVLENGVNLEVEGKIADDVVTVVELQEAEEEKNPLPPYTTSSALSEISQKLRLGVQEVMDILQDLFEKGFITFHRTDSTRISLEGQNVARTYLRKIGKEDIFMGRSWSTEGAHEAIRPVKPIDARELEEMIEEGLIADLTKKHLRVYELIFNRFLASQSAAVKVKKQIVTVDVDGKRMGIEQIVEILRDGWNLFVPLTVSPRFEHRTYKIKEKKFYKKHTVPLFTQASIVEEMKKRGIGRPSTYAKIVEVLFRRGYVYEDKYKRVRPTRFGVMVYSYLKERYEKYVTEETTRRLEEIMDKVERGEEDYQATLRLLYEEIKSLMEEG

For the next data set, the target named is T3, rGyr_hel K106Q (Thermotoga maritima, UniProt O51934 59-541, K106Q).
T3 sequence: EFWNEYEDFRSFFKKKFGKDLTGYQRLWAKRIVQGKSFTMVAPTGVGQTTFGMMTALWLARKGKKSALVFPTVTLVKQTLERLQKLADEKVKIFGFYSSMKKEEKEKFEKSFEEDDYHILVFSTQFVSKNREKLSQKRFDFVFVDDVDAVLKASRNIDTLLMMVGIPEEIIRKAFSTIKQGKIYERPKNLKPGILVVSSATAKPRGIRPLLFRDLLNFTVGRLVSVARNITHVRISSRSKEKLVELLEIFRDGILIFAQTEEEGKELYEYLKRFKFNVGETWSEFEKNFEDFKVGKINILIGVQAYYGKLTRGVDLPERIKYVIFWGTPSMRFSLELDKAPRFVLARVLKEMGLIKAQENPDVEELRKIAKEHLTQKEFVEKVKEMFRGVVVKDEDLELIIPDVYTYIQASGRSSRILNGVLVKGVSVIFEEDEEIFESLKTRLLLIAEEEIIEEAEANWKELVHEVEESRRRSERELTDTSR

Read-outs that look alike come from different tables or passages of the source.

B1: 60-base ssDNA (ssDNA)
DNA: AAGCCAAGCTTCTAGAGTCAGCCCGTGATATTCATTACTTCTTATCCTAGGATCCCCGTT
As for B1, the Kd in data set [1] turned out to be 1200 ± 200 nM; in data set [2] it was 280 ± 10 nM.

B2: 60 bp dsDNA (dsDNA)
DNA 1: AAGCCAAGCTTCTAGAGTCAGCCCGTGATATTCATTACTTCTTATCCTAGGATCCCCGTT
DNA 2: AACGGGGATCCTAGGATAAGAAGTAATGAATATCACGGGCTGACTCTAGAAGCTTGGCTT
On to B2, for which the Kd in the data set with rGyr_fl K106Q/Y851F is 490 ± 90 nM; with rGyr_hel K106Q, 1700 ± 200 nM; in data set [1], 1000 ± 100 nM.

As a reminder, the Kd is the concentration at which binding is half-saturated.
